B1: B8-IgG1 (antibody, V domains shown)
VH: EVQLVQSGAEVKKPGSSVKVSCKASGGTFSNYGISWVRQAPGQGLEWMGRILPTFGTANSAQKFQGRVTITADESTGTAYMELRSLRSEDTAVYYCAKEGLAFLGYGMDVWGQGTTVTVSS
VL: EIVLTQSPGTLSLSPGERATLSCRASQSVSSYLAWYQQKPGQAPRLLIYDASNRATGIPARFIGSGSGTDFTLTISSLEPEDFAVYFCQQRSNWPLTFGGGTKVEIK
B2: B8-mIgA2 (antibody, V domains shown)
VH: EVQLVQSGAEVKKPGSSVKVSCKASGGTFSNYGISWVRQAPGQGLEWMGRILPTFGTANSAQKFQGRVTITADESTGTAYMELRSLRSEDTAVYYCAKEGLAFLGYGMDVWGQGTTVTVSS
VL: EIVLTQSPGTLSLSPGERATLSCRASQSVSSYLAWYQQKPGQAPRLLIYDASNRATGIPARFIGSGSGTDFTLTISSLEPEDFAVYFCQQRSNWPLTFGGGTKVEIK
B3: B8-dIgA1 (antibody, V domains shown)
VH: EVQLVQSGAEVKKPGSSVKVSCKASGGTFSNYGISWVRQAPGQGLEWMGRILPTFGTANSAQKFQGRVTITADESTGTAYMELRSLRSEDTAVYYCAKEGLAFLGYGMDVWGQGTTVTVSS
VL: EIVLTQSPGTLSLSPGERATLSCRASQSVSSYLAWYQQKPGQAPRLLIYDASNRATGIPARFIGSGSGTDFTLTISSLEPEDFAVYFCQQRSNWPLTFGGGTKVEIK
B4: B8-dIgA2 (antibody, V domains shown)
VH: EVQLVQSGAEVKKPGSSVKVSCKASGGTFSNYGISWVRQAPGQGLEWMGRILPTFGTANSAQKFQGRVTITADESTGTAYMELRSLRSEDTAVYYCAKEGLAFLGYGMDVWGQGTTVTVSS
VL: EIVLTQSPGTLSLSPGERATLSCRASQSVSSYLAWYQQKPGQAPRLLIYDASNRATGIPARFIGSGSGTDFTLTISSLEPEDFAVYFCQQRSNWPLTFGGGTKVEIK
B5: B8-mIgA1 (antibody, V domains shown)
VH: EVQLVQSGAEVKKPGSSVKVSCKASGGTFSNYGISWVRQAPGQGLEWMGRILPTFGTANSAQKFQGRVTITADESTGTAYMELRSLRSEDTAVYYCAKEGLAFLGYGMDVWGQGTTVTVSS
VL: EIVLTQSPGTLSLSPGERATLSCRASQSVSSYLAWYQQKPGQAPRLLIYDASNRATGIPARFIGSGSGTDFTLTISSLEPEDFAVYFCQQRSNWPLTFGGGTKVEIK

The target in the assay is recombinant RBD derived from SARS-CoV-2 (Sino Biological) (SARS-CoV-2, ancestral (Wuhan-Hu-1) …, UniProt P0DTC2). Kind of assay: ELISA. A general note: ELISA stands for enzyme-linked immunosorbent assay.
Consider B1, for which the binding result was “binds”. For the molecule B2, the binding result is “binds”.

As for B3, the binding result is “binds”. Take B4: the binding result was “binds”. On to B5, for which the binding result is on record as “binds”.
